For 14 molecules, Kd, koff and kon results are on record in PMC4118376 (Sensors (Basel, Switzerland), 2014).

This test concerns the target staphylococcal enterotoxin B (Staphylococcus aureus (strain not …, UniProt P01552)). Briefly: SPR. The settings on record: both partners purified.

Changes are numbered by the printed parent chain.

staphylococcal enterotoxin B (Staphylococcus aureus, sequence (P01552 28-266): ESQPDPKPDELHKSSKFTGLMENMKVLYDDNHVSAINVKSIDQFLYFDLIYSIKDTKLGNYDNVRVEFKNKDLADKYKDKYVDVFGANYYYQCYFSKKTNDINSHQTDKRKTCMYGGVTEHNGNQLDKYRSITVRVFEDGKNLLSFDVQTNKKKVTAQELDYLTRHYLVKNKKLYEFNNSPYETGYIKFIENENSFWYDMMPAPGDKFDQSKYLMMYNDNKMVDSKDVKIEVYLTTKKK

B1: sdAb D9 (VHH)
VHH: EVQLQASGGGLAQAGDSLRLSCAASIRTFGSYAMGWFRQAPGKEREFVAAISWSGGDTYADSAKGRFTISRDNAKNMMYLQMNSLAPEDTAVYFCAIVEAKYYISKDARDYGYWGQGTQVFVSS
notes: source: E. coli Rosetta (DE3), periplasm, purified (IMAC, size exclusion chromatography)
What is called Kd is the free concentration of one partner at which half of the binding sites on the other are occupied at equilibrium, for simple one-to-one binding. Read a high Kd as a looser complex. As usually defined, the koff is the first-order rate constant of dissociation. A higher koff goes with a short-lived complex. What is called kon is the rate constant with which the complex forms. Low values mean slower complex formation, high ones faster complex formation. In the case of B1, the Kd amounted to 111 pM, the koff was 0.000277 s⁻¹ and the kon amounted to 2.49e+06 M⁻¹ s⁻¹.

B2: sdAb H12 (VHH)
VHH: EVQLQASGGGLVLTGGSLRLSCAASGRNFSNYAMAWFRQAPGKEREFVGTISWYTNTNYANSVKGRFSISRDNAKNTVYLQMSSLKPEDTAVYYCAAAPAMYYNPYTRESEYGYWGQGTQVTVSS
notes: as for B1
The molecule B2 returned a dissociation constant Kd of 272 pM, a dissociation rate constant (koff) of 0.000607 s⁻¹ and a kon of 2.23e+06 M⁻¹ s⁻¹.

B3: sdAb E9 (VHH)
VHH: B2 VHH with L13Q, T14A, N28D, N31D, N61D, M101R, T107K
notes: as for B1
Consider B3, for which the affinity, expressed as Kd, was 533 pM; the koff is 0.000589 s⁻¹; the kon is 1.11e+06 M⁻¹ s⁻¹.

B4: sdAb E2 (VHH)
VHH: EVQLQASGGGLVQAGGSLRLTCAASGRTFGSYAMGWFRQAPGKEREFVAAISWSGGDTYADSVKGRFTISRDNAKNTVYLQMNSLAPEDTAVYSCAAVGARYYISKDAKDYGYWGQGTQVTVSS
notes: as for B1
Molecule B4 registered a Kd of 273 pM, a koff of 0.00351 s⁻¹ and a kon of 1.28e+07 M⁻¹ s⁻¹.

B5: sdAb F1 (VHH)
VHH: B4 VHH with E1D, G26L, R27H, A60S, A86E, G99E, K106T
notes: as for B1
For B5, the affinity, expressed as Kd, was 650 pM; the koff was 0.00042 s⁻¹; the kon was 646000 M⁻¹ s⁻¹.

B6: sdAb A10 (VHH)
VHH: EVQLQASGGGLVRAGGTLRLTCDATTPTFGSYAMGWFRQAPGKEREFVSAISWSGGDTYADSVKGRFTISRDNTRNRVYLQMNDLEPDDTAIYTCARTTARYYISKDAKDYDYWGQGTQVTVSS
notes: as for B1
Turning to B6, the Kd is 158 pM, the koff came to 0.000277 s⁻¹ and the kon came to 1.76e+06 M⁻¹ s⁻¹.

B7: sdAb H9-H11 (VHH)
VHH: DVQLQASGGGLVQPGGSLRLSCAASESAVRIGFMGWHRQAPGNQRERVAQISSTGLPTYADAVKGRFTISRDNTKNTVYLQMNSLNADDTAVYFCNARLYDGTSVWGQGTQVTVSS
notes: source: E. coli, periplasm, purified (IMAC, size exclusion chromatography)
B7: binding was put at a Kd of 1560 pM, the koff is 0.000755 s⁻¹ and the kon worked out at 485000 M⁻¹ s⁻¹.

B8: sdAb S222-A2 (VHH)
VHH: B7 VHH with Q13E, E26G, R30S, N43K, L56I, T58N, A62T, V78M, V105A
notes: as for B7
B8 yielded a Kd of 4160 pM, a koff of 0.00506 s⁻¹ and a kon of 1.22e+06 M⁻¹ s⁻¹.

B9: sdAb H9-B11 (VHH)
VHH: DVQLQASGGGLVQVGGSLRLSCAASGSTFRIGYMGWYRQAPGKPRELVARISSGGTTDYLDFVKDRFTISRDNAKNTVYLQMSSLKPEDTAVYYCNVVNYRANEYWGQGTQVTVSS
notes: as for B7
Regarding B9, binding was characterised by a dissociation constant (Kd) of 3320 pM, the koff was 0.000512 s⁻¹ and the kon is 154000 M⁻¹ s⁻¹.

B10: sdAb H9-D7 (VHH)
VHH: B9 VHH with G35S, Y37H, P44S, F62S, A74T, S83N, K86E, N99D, T113A
notes: as for B1
Take B10: binding was characterised by a dissociation constant (Kd) of 1100 pM, the koff stood at 0.000192 s⁻¹ and the kon came to 174000 M⁻¹ s⁻¹.

B11: sdAb B12 (VHH)
VHH: EVQLQASGGGLVQAGGPLRLTCAVSGPTFGSYALGWFRQAPGKEREFVAAVSWSGGDTYADSVKGRFIISRDNAKNTVYLQMNNLEPEDTAVYSCARMQDRYYISKDAKDYGYWGQGTQVTVSS
notes: as for B1
With B11, the dissociation constant (Kd) worked out at 232 pM, the koff came to 0.000321 s⁻¹ and the association rate constant (kon) was 1.39e+06 M⁻¹ s⁻¹.

B12: sdAb B1 (VHH)
VHH: B11 VHH with P17S, S62T, V63A, T121I
notes: as for B1
B12: binding was characterised by a dissociation constant (Kd) of 200 pM, the koff worked out at 0.00039 s⁻¹ and the kon stood at 1.95e+06 M⁻¹ s⁻¹.

B13: sdAb H9 (VHH)
VHH: B11 VHH with P17S, G117E
notes: as for B1
B13: the dissociation constant Kd came to 90 pM, the koff was determined as 0.000318 s⁻¹ and the kon came out at 3.53e+06 M⁻¹ s⁻¹.

B14: sdAb H9-A1 (VHH)
VHH: EVQLQASGGGLVQPGGSLRLSCAASGSAVSIGFMAWYRQAPGKQRELVARISSSGLPDYADTVKGRFTISRDNTRKTVSLQMNSLNPDDTAVYYCNARLYDGSSAWGQGTQVTVSS
notes: as for B1
B14 gave a Kd of 1250 pM, a koff of 0.00227 s⁻¹ and a kon of 1.8e+06 M⁻¹ s⁻¹.
